In article PMC8191807, “The fidelity of DNA replication, particularly on GC-rich templates, is reduced by defects of the Fe–S cluster in DNA polymerase δ” (Nucleic Acids Research, 2021):

T1: Pol3p, catalytic subunit of DNA polymerase δ (overexpressed for Pol δ purification) (S. cerevisiae, UniProt P15436 1-1097)
T1 construct: Pol3p, catalytic subunit of DNA polymerase δ, Saccharomyces cerevisiae; also called catalytic subunit of Pol δ; source: purified on glutathione Sepharose 4B, PreScission Protease, MonoS FPLC
T1 sequence (looked up): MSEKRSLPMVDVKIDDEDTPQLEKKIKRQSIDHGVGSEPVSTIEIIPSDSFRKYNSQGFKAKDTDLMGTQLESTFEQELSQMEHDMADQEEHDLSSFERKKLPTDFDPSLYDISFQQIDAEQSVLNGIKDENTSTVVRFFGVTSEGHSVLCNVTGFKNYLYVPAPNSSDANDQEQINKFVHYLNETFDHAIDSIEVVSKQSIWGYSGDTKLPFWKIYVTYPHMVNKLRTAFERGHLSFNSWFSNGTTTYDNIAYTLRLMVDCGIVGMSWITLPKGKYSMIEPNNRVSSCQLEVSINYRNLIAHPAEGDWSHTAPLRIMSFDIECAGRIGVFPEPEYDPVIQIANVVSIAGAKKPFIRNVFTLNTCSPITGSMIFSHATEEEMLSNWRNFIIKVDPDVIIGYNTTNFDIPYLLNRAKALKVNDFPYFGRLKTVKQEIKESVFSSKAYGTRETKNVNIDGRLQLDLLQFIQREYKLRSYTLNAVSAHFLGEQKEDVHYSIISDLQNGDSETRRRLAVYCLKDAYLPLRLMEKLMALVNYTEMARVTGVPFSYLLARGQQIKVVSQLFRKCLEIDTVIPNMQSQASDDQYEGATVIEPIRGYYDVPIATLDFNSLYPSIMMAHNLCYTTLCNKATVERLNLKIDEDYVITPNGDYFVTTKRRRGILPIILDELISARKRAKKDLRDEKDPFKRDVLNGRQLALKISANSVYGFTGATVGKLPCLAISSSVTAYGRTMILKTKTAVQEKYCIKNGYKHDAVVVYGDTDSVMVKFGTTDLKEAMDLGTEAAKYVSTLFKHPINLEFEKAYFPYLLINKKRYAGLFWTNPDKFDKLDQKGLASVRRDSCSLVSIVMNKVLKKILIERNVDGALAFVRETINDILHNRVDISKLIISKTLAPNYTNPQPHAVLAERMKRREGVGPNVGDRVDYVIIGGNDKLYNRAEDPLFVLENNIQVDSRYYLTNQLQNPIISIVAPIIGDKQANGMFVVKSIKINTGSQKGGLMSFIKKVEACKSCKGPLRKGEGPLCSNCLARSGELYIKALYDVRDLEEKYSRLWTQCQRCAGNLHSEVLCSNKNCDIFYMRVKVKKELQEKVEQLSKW

T2: Pol3 fused to a LexA DNA-binding domain (LexABD-POL3, pBL322) (S. cerevisiae, UniProt P15436 1-1097)
T2 construct: Pol3p, catalytic subunit of DNA polymerase δ, Saccharomyces cerevisiae; also called Pol3^BD; source: yeast two-hybrid fusion (2μ vector pBTM116, strain L40 or its met18Δ derivative DKy440)
T2 sequence (looked up): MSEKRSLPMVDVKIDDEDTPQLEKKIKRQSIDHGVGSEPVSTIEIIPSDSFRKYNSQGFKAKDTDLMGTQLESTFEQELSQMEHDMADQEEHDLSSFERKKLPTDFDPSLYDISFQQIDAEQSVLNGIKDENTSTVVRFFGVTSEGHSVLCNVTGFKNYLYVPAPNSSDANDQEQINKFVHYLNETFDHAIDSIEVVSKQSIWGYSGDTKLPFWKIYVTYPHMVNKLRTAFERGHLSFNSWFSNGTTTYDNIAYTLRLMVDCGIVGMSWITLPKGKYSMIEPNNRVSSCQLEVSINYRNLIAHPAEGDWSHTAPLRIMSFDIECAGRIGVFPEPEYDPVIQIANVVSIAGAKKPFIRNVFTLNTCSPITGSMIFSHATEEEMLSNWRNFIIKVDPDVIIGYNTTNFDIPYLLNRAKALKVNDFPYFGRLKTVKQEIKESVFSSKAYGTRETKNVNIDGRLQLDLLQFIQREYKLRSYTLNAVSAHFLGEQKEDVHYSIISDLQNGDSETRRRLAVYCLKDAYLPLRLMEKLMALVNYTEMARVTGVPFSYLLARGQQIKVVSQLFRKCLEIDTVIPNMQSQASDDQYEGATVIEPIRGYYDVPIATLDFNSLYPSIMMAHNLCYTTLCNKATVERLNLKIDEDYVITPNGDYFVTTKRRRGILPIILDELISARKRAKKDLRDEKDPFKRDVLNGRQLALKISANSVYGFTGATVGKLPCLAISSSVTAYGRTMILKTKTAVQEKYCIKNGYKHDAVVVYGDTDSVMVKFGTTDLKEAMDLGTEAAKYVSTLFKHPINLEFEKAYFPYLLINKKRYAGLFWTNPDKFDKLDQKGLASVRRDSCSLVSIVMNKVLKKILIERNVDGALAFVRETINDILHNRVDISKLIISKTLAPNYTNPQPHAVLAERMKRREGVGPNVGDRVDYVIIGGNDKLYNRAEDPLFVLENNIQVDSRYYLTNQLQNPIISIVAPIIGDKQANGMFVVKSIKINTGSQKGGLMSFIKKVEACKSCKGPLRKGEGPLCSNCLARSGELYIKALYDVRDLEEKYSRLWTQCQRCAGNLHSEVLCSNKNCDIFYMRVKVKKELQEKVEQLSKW


Legend:
[1] = target: T1, Pol3p, catalytic subunit of DNA …; assay: co-purification (glutathione Sepharose, MonoS FPLC), composition by gel electrophoresis; Pol3p, Pol31p and Pol32p overexpressed together in the MET18 strain BJ2168; batch bound to glutathione Sepharose 4B at 4°C, washed with Hep250, Hep150, Hep50, eluted with 20 mM glutathione, PreScission Protease, MonoS gradient 50-1000 mM NaCl; conditions: partners not purified
[2] = target: T2, Pol3 fused to a LexA DNA-binding domain …; assay: two-hybrid; LexA DNA-binding domain and GAL4 activation domain fusions, (lexAop)8-lacZ reporter, quantitative β-galactosidase assays in triplicate; wild-type strain L40 and its met18Δ derivative DKy440; conditions: partners not purified

stoichiometry N [1] | fold reduction of β-galactosidase in the met18 strain relative to the wild-type strain [2] | Binder
0.8 molar ratio relative to Pol3p | – | Pol31p, accessory subunit of DNA polymerase δ (overexpressed for Pol δ purification) (natural protein, S. cerevisiae, UniProt P46957 1-487, looked up, Pol31p, accessory subunit of DNA polymerase δ, Saccharomyces cerevisiae) MDALLTKFNEDRSLQDENLSQPRTRVRIVDDNLYNKSNPFQLCYKKRDYGSQYYHIYQYRLKTFRERVLKECDKRWDAGFTLNGQLVLKKDKVLDIQGNQPCWCVGSIYCEMKYKPNVLDEVINDTYGAPDLTKSYTDKEGGSDEIMLEDESGRVLLVGDFIRSTPFITGVVVGILGMEAEAGTFQVLDICYPTPLPQNPFPAPIATCPTRGKIALVSGLNLNNTSPDRLLRLEILREFLMGRINNKIDDISLIGRLLICGNSVDFDIKSVNKDELMISLTEFSKFLHNILPSISVDIMPGTNDPSDKSLPQQPFHKSLFDKSLESYFNGSNKEILNLVTNPYEFSYNGVDVLAVSGKNINDICKYVIPSNDNGESENKVEEGESNDFKDDIEHRLDLMECTMKWQNIAPTAPDTLWCYPYTDKDPFVLDKWPHVYIVANQPYFGTRVVEIGGKNIKIISVPEFSSTGMIILLDLETLEAETVKIDI
– | ~2 fold | Pol31 fused to a GAL4-activation domain (GAL4AD-POL31, pBL364) (natural protein, S. cerevisiae, UniProt P46957 1-487, looked up, Pol31p, accessory subunit of DNA polymerase δ, Saccharomyces cerevisiae; also called Pol31^AD; source: yeast two-hybrid fusion (2μ vector pACT2, strain L40 or its met18Δ derivative DKy440)) MDALLTKFNEDRSLQDENLSQPRTRVRIVDDNLYNKSNPFQLCYKKRDYGSQYYHIYQYRLKTFRERVLKECDKRWDAGFTLNGQLVLKKDKVLDIQGNQPCWCVGSIYCEMKYKPNVLDEVINDTYGAPDLTKSYTDKEGGSDEIMLEDESGRVLLVGDFIRSTPFITGVVVGILGMEAEAGTFQVLDICYPTPLPQNPFPAPIATCPTRGKIALVSGLNLNNTSPDRLLRLEILREFLMGRINNKIDDISLIGRLLICGNSVDFDIKSVNKDELMISLTEFSKFLHNILPSISVDIMPGTNDPSDKSLPQQPFHKSLFDKSLESYFNGSNKEILNLVTNPYEFSYNGVDVLAVSGKNINDICKYVIPSNDNGESENKVEEGESNDFKDDIEHRLDLMECTMKWQNIAPTAPDTLWCYPYTDKDPFVLDKWPHVYIVANQPYFGTRVVEIGGKNIKIISVPEFSSTGMIILLDLETLEAETVKIDI
1.1 molar ratio relative to Pol3p | – | Pol32p, accessory subunit of DNA polymerase δ (overexpressed for Pol δ purification) (natural protein, S. cerevisiae, UniProt P47110 1-350, looked up, Pol32p, accessory subunit of DNA polymerase δ, Saccharomyces cerevisiae) MDQKASYFINEKLFTEVKPVLFTDLIHHLKIGPSMAKKLMFDYYKQTTNAKYNCVVICCYKDQTIKIIHDLSNIPQQDSIIDCFIYAFNPMDSFIPYYDIIDQKDCLTIKNSYELKVSESSKIIERTKTLEEKSKPLVRPTARSKTTPEETTGRKSKSKDMGLRSTALLAKMKKDRDDKETSRQNELRKRKEENLQKINKQNPEREAQMKELNNLFVEDDLDTEEVNGGSKPNSPKETDSNDKDKNNDDLEDLLETTAEDSLMDVPKIQQTKPSETEHSKEPKSEEEPSSFIDEDGYIVTKRPATSTPPRKPSPVVKRALSSSKKQETPSSNKRLKKQGTLESFFKRKAK
